Data as given in publication PMC12865133, “Macrocyclic Molecular Glues for the 14‐3‐3/ChREBP Interaction: Affinity and Cooperativity in an Inverse Relationship” (Angewandte Chemie (International Ed. in English), 2025).
Several values for one entry are separate records, joined by “and”; a condition that tells them apart may be missing. Equal values may be shown once. Bridges are numbered along the chain shown (N, C = ends). Where no end group is shown, it is not given here. [ ]: non-standard residue; d: D form. Phe(4-NO2) = N[C@@H](Cc1ccc([N+](=O)[O-])cc1)C(=O)O; pT = C[C@@H](OP(=O)(O)O)[C@H](N)C(=O)O; pS = N[C@@H](COP(=O)(O)O)C(=O)O; azidoPhe = azido phenylalanine; β3hS = N[C@@H](CO)CC(=O)O; βAla = NCCC(=O)O

B1: macrocycle 4 (peptide)
chain: SFSXFK
modifications: not fully specified; phosphoserine (position 0); phenylalanine(+1) with a triazole (from azido phenylalanine, replacing Nph(+1)) cyclised to the backbone amide nitrogen of Lys(+5) through an alkyl linker x = 4 (from 5-hexyn-1-ol); β-homoSer(+2); β-Ala(+3); 4-nitrophenylalanine Nph(+4); Ac- (Ac-macrocycles)
B2: macrocycle 3 (peptide)
chain: Ac-[pS][azidoPhe][β3hS][βAla][Phe(4-NO2)]K
modifications: bridge 2-6; not fully specified (bridges); also: triazole of Phe(+1) (from azido phenylalanine) cyclised to backbone amide nitrogen of Lys(+5)
B3: fluorescently labeled macrocycle F2 (peptide)
chain: SFSXFKXK
modifications: not fully specified; phosphoserine; Phe(+1) triazole cyclised to the backbone amide nitrogen of Lys(+5) through a linker x = 2 (from 3-butyn-1-ol); β-homoSer(+2); β-Ala(+3); Nph(+4); β-Ala and a lysine whose side chain carries fluorescein isothiocyanate (FITC) after Lys(+5)
B4: fluorescently labeled macrocycle F4 (peptide)
chain: SFSXFKXK
modifications: not fully specified; phosphoserine; Phe(+1) triazole cyclised to the backbone amide nitrogen of Lys(+5) through a linker x = 4 (from 5-hexyn-1-ol); β-homoSer(+2); β-Ala(+3); Nph(+4); β-Ala and a lysine whose side chain carries fluorescein isothiocyanate (FITC) after Lys(+5)
B5: fluorescently labeled macrocycle F1 (peptide)
chain: SFSXFKXK
modifications: not fully specified; phosphoserine; Phe(+1) triazole cyclised to the backbone amide nitrogen of Lys(+5) through a linker x = 1 (from propargyl alcohol); β-homoSer(+2); β-Ala(+3); Nph(+4); β-Ala and a lysine whose side chain carries fluorescein isothiocyanate (FITC) after Lys(+5)
B6: fluorescently labeled macrocycle F3 (peptide)
chain: SFSXFKXK
modifications: not fully specified; phosphoserine; Phe(+1) triazole cyclised to the backbone amide nitrogen of Lys(+5) through a linker x = 3 (from 4-pentyn-1-ol); β-homoSer(+2); β-Ala(+3); Nph(+4); β-Ala and a lysine whose side chain carries fluorescein isothiocyanate (FITC) after Lys(+5)
B7: macrocycle F2 (peptide)
chain: SFSXFKXK
modifications: not fully specified; fluorescein isothiocyanate (FITC) on the side chain of the first lysine; β-alanine after it; phosphoserine; triazole from azido phenylalanine (replacing Nph(+1)) cyclised to the backbone amide nitrogen between Lys(+5) and Nph(+4), linker x = 2; β-homoSer(+2); β-Ala(+3); 4-nitrophenylalanine Nph(+4)
B8: macrocycle F4 (peptide)
chain: SFSXFKXK
modifications: not fully specified; fluorescein isothiocyanate (FITC) on the side chain of the first lysine; β-alanine after it; phosphoserine; triazole from azido phenylalanine (replacing Nph(+1)) cyclised to the backbone amide nitrogen between Lys(+5) and Nph(+4), linker x = 4; β-homoSer(+2); β-Ala(+3); 4-nitrophenylalanine Nph(+4)
B9: macrocycle F1 (peptide)
chain: SFSXFKXK
modifications: not fully specified; fluorescein isothiocyanate (FITC) on the side chain of the first lysine; β-alanine after it; phosphoserine; triazole from azido phenylalanine (replacing Nph(+1)) cyclised to the backbone amide nitrogen between Lys(+5) and Nph(+4), linker x = 1; β-homoSer(+2); β-Ala(+3); 4-nitrophenylalanine Nph(+4)
B10: macrocycle F3 (peptide)
chain: SFSXFKXK
modifications: not fully specified; fluorescein isothiocyanate (FITC) on the side chain of the first lysine; β-alanine after it; phosphoserine; triazole from azido phenylalanine (replacing Nph(+1)) cyclised to the backbone amide nitrogen between Lys(+5) and Nph(+4), linker x = 3; β-homoSer(+2); β-Ala(+3); 4-nitrophenylalanine Nph(+4)
B11: TAZ client peptide (peptide)
peptide: Ac-HVRSH[pS]SPASLQLG
notes: TAZ, 14-3-3 client peptide; No C-terminal group is printed for this peptide; source: synthetic peptide, bought: GenScript Biotech Corp
B12: acetylated ChREBP peptide (peptide)
peptide: Ac-RDKIRLNNAIWRAWYIQYVKRRKSPV-NH2
notes: also called S (in the model); source: synthetic peptide, bought: GenScript Biotech Corp
B13: ERα client peptide (peptide)
peptide: Ac-EGFPA[pT]V-OH
SMILES: CC(=O)N[C@@H](CCC(=O)O)C(=O)NCC(=O)N[C@@H](Cc1ccccc1)C(=O)N1CCC[C@H]1C(=O)N[C@@H](C)C(=O)N[C@H](C(=O)N[C@H](C(=O)O)C(C)C)[C@@H](C)OP(=O)(O)O
notes: ERα (estrogen receptor alpha), 14-3-3 client peptide; source: synthetic peptide, bought: GenScript Biotech Corp
B14: B-RAF client peptide (peptide)
peptide: Ac-RDRSS[pS]APNVH-NH2
SMILES: CC(=O)N[C@@H](CCCNC(=N)N)C(=O)N[C@@H](CC(=O)O)C(=O)N[C@@H](CCCNC(=N)N)C(=O)N[C@@H](CO)C(=O)N[C@@H](CO)C(=O)N[C@@H](COP(=O)(O)O)C(=O)N[C@@H](C)C(=O)N1CCC[C@H]1C(=O)N[C@@H](CC(N)=O)C(=O)N[C@H](C(=O)N[C@@H](Cc1c[nH]cn1)C(N)=O)C(C)C
notes: B-RAF, 14-3-3 client peptide; source: synthetic peptide, bought: GenScript Biotech Corp
B15: NOTCH4 client peptide (peptide)
peptide: Ac-RPRTQ[pS]APHRRRPP-NH2
SMILES: CC(=O)N[C@@H](CCCNC(=N)N)C(=O)N1CCC[C@H]1C(=O)N[C@@H](CCCNC(=N)N)C(=O)N[C@H](C(=O)N[C@@H](CCC(N)=O)C(=O)N[C@@H](COP(=O)(O)O)C(=O)N[C@@H](C)C(=O)N1CCC[C@H]1C(=O)N[C@@H](Cc1c[nH]cn1)C(=O)N[C@@H](CCCNC(=N)N)C(=O)N[C@@H](CCCNC(=N)N)C(=O)N[C@@H](CCCNC(=N)N)C(=O)N1CCC[C@H]1C(=O)N1CCC[C@H]1C(N)=O)[C@@H](C)O
notes: NOTCH4, 14-3-3 client peptide; source: synthetic peptide, bought: GenScript Biotech Corp
B16: ExoS client peptide (peptide)
peptide: Ac-QGLLDALDLAS-NH2
notes: ExoS (exoenzyme S), 14-3-3 client peptide; source: synthetic peptide, bought: GenScript Biotech Corp
B17: ERRγ client peptide (peptide)
peptide: Ac-KRRRK[pS]CQA-NH2
SMILES: CC(=O)N[C@@H](CCCCN)C(=O)N[C@@H](CCCNC(=N)N)C(=O)N[C@@H](CCCNC(=N)N)C(=O)N[C@@H](CCCNC(=N)N)C(=O)N[C@@H](CCCCN)C(=O)N[C@@H](COP(=O)(O)O)C(=O)N[C@@H](CS)C(=O)N[C@@H](CCC(N)=O)C(=O)N[C@@H](C)C(N)=O
notes: ERRγ (estrogen-related receptor gamma), 14-3-3 client peptide; source: synthetic peptide, bought: GenScript Biotech Corp
B18: USP8 client peptide (peptide)
peptide: Ac-KLKRSY[pS]SPDITQ-NH2
SMILES: CC[C@H](C)[C@H](NC(=O)[C@H](CC(=O)O)NC(=O)[C@@H]1CCCN1C(=O)[C@H](CO)NC(=O)[C@H](COP(=O)(O)O)NC(=O)[C@H](Cc1ccc(O)cc1)NC(=O)[C@H](CO)NC(=O)[C@H](CCCNC(=N)N)NC(=O)[C@H](CCCCN)NC(=O)[C@H](CC(C)C)NC(=O)[C@H](CCCCN)NC(C)=O)C(=O)N[C@H](C(=O)N[C@@H](CCC(N)=O)C(N)=O)[C@@H](C)O
notes: USP8, 14-3-3 client peptide; source: synthetic peptide, bought: GenScript Biotech Corp

molecular target: T1, full-length human 14-3-3γ protein with a N-terminal His6 tag (human, UniProt P61981 1-247); test: ITC; 200 μM macrocycle or pepD titrated to 20 μM 14-3-3γ; 25 mM HEPES pH 8.0, 100 mM NaCl, 10 mM MgCl2, 500 µM TCEP; 25 °C; fitted with SEDPHAT; mean ± SD, n=3; conditions: both partners purified
T1 construct: 14-3-3 protein gamma, human, full length; TEV cleavage of the His6 tag is told only for the 14-3-3σ ΔC construct; source: E. coli BL21(DE3), pPROEX HTb, purified (Ni-NTA, dialysis)
T1 sequence (looked up): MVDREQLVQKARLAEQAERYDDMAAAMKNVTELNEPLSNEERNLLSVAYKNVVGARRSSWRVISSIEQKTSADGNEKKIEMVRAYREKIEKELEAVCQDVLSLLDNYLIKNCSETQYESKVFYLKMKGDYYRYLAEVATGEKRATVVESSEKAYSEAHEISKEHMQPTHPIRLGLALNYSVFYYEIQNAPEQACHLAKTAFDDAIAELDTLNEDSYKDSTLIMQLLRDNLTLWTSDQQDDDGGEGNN

Binder	Kd
B1	1050 nM
B2	167 nM

molecular target: T2, full-length human 14-3-3β protein with a N-terminal His6 tag (human, UniProt P31946 1-246); test: fluorescence polarisation; 2D fluorescence anisotropy titration, replicate 1: 14-3-3β titrated (from 250 µM) to FITC-labeled macrocycle or pepD with varying ChREBP peptide starting at 20 μM; KD I (binary affinity of the macrocycle for a site of the 14-3-3 dimer) fitted by the thermodynamic cooperativity model with KD II fixed at 1.5 µM; 10 mM HEPES pH 7.4, 150 mM NaCl, 0.1% Tween20, 0.1% BSA; room temperature; conditions: both partners purified
T2 construct: 14-3-3 protein beta/alpha, human, full length; Treated as a dimer in the thermodynamic model (Pp = 14-3-3 dimer); also called Pp (14-3-3 dimer); source: E. coli BL21(DE3), pPROEX HTb, purified (Ni-NTA, dialysis)
T2 sequence (looked up): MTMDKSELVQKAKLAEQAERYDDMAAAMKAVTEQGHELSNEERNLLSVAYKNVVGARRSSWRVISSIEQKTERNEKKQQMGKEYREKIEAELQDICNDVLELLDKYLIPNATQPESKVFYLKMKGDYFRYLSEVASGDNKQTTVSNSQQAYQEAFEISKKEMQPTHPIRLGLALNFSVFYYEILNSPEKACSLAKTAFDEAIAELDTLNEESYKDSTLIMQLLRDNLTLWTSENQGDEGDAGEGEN

Binder	Kd
B3	12.6 µM
B4	5 µM
[pS][Phe(4-NO2)][β3hS][βAla][Phe(4-NO2)]K (also: FITC label, site not given here) [FITC-labeled pepD]	8.9 µM
B5	71 µM
B6	0.63 µM

molecular target: T3, 14-3-3γ (UniProt P61981 1-247); test: fluorescence polarisation; fluorescence anisotropy; 14-3-3γ titrated to FITC-labeled macrocycles F1-F4 and pepD (10 nM); mean ± SD, n = 3; conditions: both partners purified
T3 construct: 14-3-3 protein, gamma isoform; also called 14-3-3 protein
T3 sequence (looked up): T1 sequence (looked up)

Binder	Kd
B7	5.7 µM
B8	2.1 µM
B9	57 µM
B10	0.23 µM

molecular target: T2, full-length human 14-3-3β protein with …; test: fluorescence polarisation; 2D fluorescence anisotropy titration, replicate 2: 14-3-3β titrated (from 250 µM) to FITC-labeled macrocycle or pepD with varying ChREBP peptide starting at 10 μM; KD I (binary affinity of the macrocycle for a site of the 14-3-3 dimer) fitted by the thermodynamic cooperativity model with KD II fixed at 1.5 µM; 10 mM HEPES pH 7.4, 150 mM NaCl, 0.1% Tween20, 0.1% BSA; room temperature; conditions: both partners purified

Binder	Kd
B3	11.9 µM
[pS][Phe(4-NO2)][β3hS][βAla][Phe(4-NO2)]K (also: FITC label, site not given here) [FITC-labeled pepD]	7.5 µM
B5	73 µM
B6	0.38 µM

molecular target: T4, recombinant 14-3-3γ-Twinstrep protein (human, UniProt P61981 1-247); test: SPR; affinity fit (steady-state response against concentration, 1:1 model); Twinstrep-tagged 14-3-3γ captured on a Strep-Tactin XT chip, 2-fold dilutions of Ac-macrocycle or pepD injected; 25 °C; 10 mM HEPES pH 7.4, 200 mM NaCl, 50 μM EDTA, 0.005% P20; two replicates and their average; conditions: both partners purified
T4 construct: 14-3-3 protein gamma; The expression of the Twinstrep construct is not described; also called Twinstrep-tagged 14-3-3γ; source: recombinant
T4 sequence (looked up): T1 sequence (looked up)

Binder	Kd
B1	1180 nM and 1130 nM and 1200 nM
B2	228 nM and 253 nM and 240 nM

molecular target: T4, recombinant 14-3-3γ-Twinstrep protein; test: SPR; kinetic fit (1:1 model, global); Twinstrep-tagged 14-3-3γ captured on a Strep-Tactin XT chip (about 1000 RU), 2-fold dilutions of Ac-macrocycle or pepD injected; multi-cycle; 25 °C; 10 mM HEPES pH 7.4, 200 mM NaCl, 50 μM EDTA, 0.005% P20; two replicates and their average; conditions: both partners purified

Binder	Kd
B1	1140 nM and 1030 nM and 1100 nM
B2	220 nM and 233 nM and 230 nM

molecular target: T2, full-length human 14-3-3β protein with …; test: fluorescence polarisation; selectivity assay by fluorescence anisotropy: acetylated 14-3-3 client peptides titrated (from 100 μM, 2-fold) to 10 nM FITC-labeled macrocycle F2 or F4 bound to 14-3-3β (7 μM for 2, 2 μM for 4); 10 mM HEPES pH 7.4, 150 mM NaCl, 0.1% Tween20, 0.1% BSA; room temperature; conditions: both partners purified

Binder	binding result
B11	binds
B12	binds
B13	binds
B14	binds
B15	binds
B16	binds
B17	binds
B18	binds

molecular target: T5, 14-3-3β (UniProt P31946 1-246); test: fluorescence polarisation; two-dimensional fluorescence anisotropy; 14-3-3β titrated to FITC-labeled F1, F2, F3, F4 or pepD (10 nM) with varying concentrations of ChREBP peptide; fitted to a thermodynamic cooperativity model with KD II fixed at 1.5 µM; n = 2; conditions: both partners purified
T5 construct: 14-3-3 protein, beta isoform; also called 14-3-3 protein
T5 sequence (looked up): T2 sequence (looked up)

Binder	Kd
B9	72 ± 1.4 µM
